{"source": "patent US20070118934A1", "key": {"[1]": {"target": "human rhinovirus serotype HRV-39"}, "[2]": {"target": "human rhinovirus serotype HRV-39", "test": "cell-based or functional assay"}, "[3]": {"target": "mouse (anti-human ICAM) monoclonal antibody"}}, "data": [{"substance": "ICAM-IgA (Fc fusion)", "values": [{"measurement": "IC50 (read off the curve)", "setting": "[1]", "result": 3, "unit": "nM"}]}, {"substance": "IC1-5D/IgA (ICAM/IgA fusion, gift of Dr. Tim Springer; Martin et al. 1993) (from UniProt P05362 28-480; P01876 103-353) (Fc fusion)", "values": [{"measurement": "IC50, cytopathic effect (CPE) assay, HRV-39 on HeLa S3 cells", "setting": "[2]", "result": 0.12, "unit": "µg/mL"}, {"measurement": "fold lower IC50 than soluble ICAM-1, CPE assay", "setting": "[2]", "result": 11.3, "unit": "fold"}]}, {"substance": "soluble human ICAM-1 (from UniProt P05362 28-480) (receptor)", "values": [{"measurement": "IC50 (read off the curve)", "setting": "[3]", "result": 0.8, "unit": "µg/mL"}, {"measurement": "IC50 (read off the curve)", "setting": "[1]", "result": 40, "unit": "nM"}, {"measurement": "IC50, cytopathic effect (CPE) assay, HRV-39 on HeLa S3 cells", "setting": "[2]", "result": 1.35, "unit": "µg/mL"}]}]}
